Measured values published in the supplement of paper PMC12042874.
± gives the uncertainty stated by the source.

Assay: amyloid nucleation score (Sup35N fusion, yeast selection) (log enrichment); library NNK2; higher = more nucleation; inactive = no reads after selection
Procedure, shortened: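 The nucleation score is a DiMSum log enrichment of output over input reads, centred on the mode score of non-aggregating sequences. Sequences under 100 input reads were excluded, and reads came from Illumina sequencing of plasmid inserts. Psi-negative yeast expressing Sup35N fused to peptides of 20 random codons were induced with 100 μM copper sulfate for 24 hours and grown 7 days at 30°C on medium lacking adenine and uracil. Random libraries had three technical output replicates.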

Substance	amyloid nucleation score
NSAIVLHTSYIHFVFYSVFY	-0.403 ± 0.63
NSCSWDSIITLVVQWLARQH	6.342 ± 0.039
NSFRISGLVDLVNNLSGYLS	-1.34 ± 0.61
NSIAYPACLNKWGWIKFSSY	-1.41 ± 0.29
NSIVWGIHGFVLTLVFFTCF	-0.849 ± 1
NSLHSDSVLIKERDADKSTR	1.73 ± 0.14
NSLVYCKKPSLPFHHGCK	-0.032 ± 0.42
NSLYRGRRHRAYDINVSFVK	-0.392 ± 0.48
NSRQYSVMIVQLIPCCQLIP	0.033 ± 0.6
NSRTGTLREVHYLPDST	5.1 ± 0.054
NSSSYVDFGTICMDSIWMS	0.041 ± 0.53
NSWFLYRCKFVLRHSYVN	inactive
NSYSGAVLT	-0.464 ± 1.1
NTANKFSLFKTGMVWVSFFT	2.88 ± 0.099
NTEEDDKRVRMGELVVEYSN	1.36 ± 0.17
NTGFTLMGCWPMYYCWSFSW	-0.073 ± 1
NTLDSGPNGGWLISTY	inactive
NTLTTFVIGGCCLRFEASYM	10.52 ± 0.077
NTLVSVYEYFSMWGRSCRWS	0.141 ± 0.61
NTRNDWQS	2.13 ± 0.15
NTSMNCRKVMYDMNIYNLSK	3.49 ± 0.11
NTSQDG	5.15 ± 0.087

Substance	amyloid nucleation score
NVDLFWQWVYVYWRGARVEF	0.075 ± 0.43
NVFTNTLVN	8.667 ± 0.081
NVLLKNLESPIFYRDMTTL	-0.252 ± 0.76
NVLQLDPFFAYSVRCILGSE	inactive
NVRDYRIFDL	-0.877 ± 0.78
NVRIVYRPAGPFG	-0.347 ± 0.39
NVRVRLET	0.027 ± 0.27
NVSGMFISMLIFRIMHHGQC	5.11 ± 0.055
NVVGRYKSSDSLTYARWGWR	-0.064 ± 0.34
NVVIRNRFWMNSGRARISAY	-0.428 ± 0.49
NWKANYEFVRLIVVLLSSRR	0.202 ± 0.64
NWLCRWWQGWNLT	0.739 ± 0.28
NWPMGGHVYKHRVSHSG	0.095 ± 0.53
NWQVPKVFQVLNYA	0.054 ± 0.79
NWRTCLALNCLTDPAKYLIN	-0.725 ± 0.76
NWSGMPLPFLTFRKRFVEV	-0.998 ± 1
NWVLVVGSSWEFLSGSASGG	2.18 ± 0.17
NWVMVLGLGVCKSIWLLPMV	-0.572 ± 0.76
NWWESRAFGWYDSLSIFSYT	-0.469 ± 1.1
NYCMRGVASIG	-0.475 ± 0.45
NYCNDGVGCYS	4.82 ± 0.067
NYFSTDMGFCLRDTYCRCEI	4.68 ± 0.089

Substance	amyloid nucleation score
NYITSSVCFCCSDPMYTPSR	8.552 ± 0.031
NYLTQCSRSFNFARVDF	-0.003 ± 0.56
NYREMLWSDIRVVS	0.004 ± 1.1
NYSRL	-0.099 ± 0.26
NYVCSWMLRFSVGRSQIPAV	-0.924 ± 0.76
NYWRDGQNDLGWLSLANFFK	inactive
NYYQR	0.025 ± 1.1
PACTLESYRSNNFDGLFMTT	-0.609 ± 0.76
PALCVNAVTKIDRNNCYDNG	3.92 ± 0.064
PALQCLSHRAIA	0.222 ± 0.62
PASISLNFS	1.58 ± 0.22
PAVWVN	-0.34 ± 0.56
PCENLVCEII	inactive
PCGLIV	0.22 ± 0.63
PCPSISGLFASAYPITRLSL	-0.347 ± 0.24
PCTRS	0.414 ± 0.31
PDAIVSGVEHAKGTSDAALS	-0.15 ± 0.28
PDDLYCNPEGSLYQSIW	inactive
PDGTVYDGYSFCSVS	-0.615 ± 0.63
PDPVPM	0.632 ± 0.31
PDVTGKELHF	3.42 ± 0.071
PFAWANKYTIQPINPYRGAA	-0.552 ± 0.41

Substance	amyloid nucleation score
PFCCLWFGLMHSSGVFRFMG	inactive
PFDFAGA	2.91 ± 0.087
PFLQLCREAIFCLSHDGMLK	-0.575 ± 0.28
PFLVLSWDRCN	-0.288 ± 1.1
PFRSS	-0.415 ± 0.36
PFSFRLSGINSPPVISVA	-1.16 ± 0.41
PFVNVM	-0.047 ± 0.38
PGCHEVSKF	-1.14 ± 0.47
PGCHWISASCGDVLDKGNTG	0.501 ± 0.62
PGCSIDWILYRRTAYGTISD	-0.619 ± 0.36
PGMPARVHTCLSAMTYNFMC	-0.901 ± 0.44
PGNCRSFCRS	0.695 ± 0.47
PGPAKVANCGWCTYTGGTSH	1.12 ± 0.45
PGRLKCGNSRYFWYFDMRHV	inactive
PGSVTGMLWSGTFEVRYLGL	0.101 ± 0.26
PGYPVTFLRRDAYAVREFEF	-0.1 ± 1
PGYSVVIWELSEEGTFYKRK	inactive
PHCCCRTSHLSPLNQRDKGS	0.11 ± 0.77
PHCRSLETH	-0.083 ± 0.33
PHLFFDTFV	3.98 ± 0.087
